Measurements: the supplement of paper PMC7125110
± gives the standard error. For some of these results: Variants at the floor of the assay were thinned out.

B1: glmS ribozyme (parent)
chain: AUAAAAGCGCCAGAACUACAGAAAUGUAGUUGACGAGGAGGAGGUUUAUCGAAUUUUCGGCGGAUGCCUCCAAA

Columns and labels:
Settings in all cases: with glucosamine-6-phosphate
glucosamine-6-phosphate [1] = variants of: B1; assay: kcat; higher = faster cleavage; RNA array
How it was run: (§1)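 Using a hybridised Cy3 probe at 37 °C, barcoded ribozyme variants transcribed in situ by E. coli RNA polymerase on sequenced MiSeq chips were monitored across tiles imaged over ~14 h. The flow contained glucosamine-6-phosphate from 40 μM to 10 mM in HEPES/KCl/Mg(OAc)2 buffer. Signals were normalised to baseline and to non-cleaving reference variants before per-tile medians were fit to one- or two-exponential decays to yield kobs. Weighted Michaelis–Menten fits across concentrations gave kcat and KM.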

glucosamine-6-phosphate [2] = variants of: B1; assay: KM; higher = weaker cofactor use; RNA array
How it was run: as §1

glucosamine-6-phosphate [3] = variants of: B1; assay: self-cleavage kobs at 640 uM GlcN6P; higher = faster cleavage; RNA array
How it was run: as §1

glucosamine-6-phosphate [4] = variants of: B1; assay: self-cleavage kobs at 2500 uM GlcN6P; higher = faster cleavage; RNA array
How it was run: as §1

glucosamine-6-phosphate [5] = variants of: B1; assay: self-cleavage kobs at 10000 uM GlcN6P; higher = faster cleavage; RNA array
How it was run: as §1

glucosamine-6-phosphate [6] = variants of: B1; assay: self-cleavage kobs at 40 uM GlcN6P; higher = faster cleavage; RNA array
How it was run: as §1

glucosamine-6-phosphate [7] = variants of: B1; assay: self-cleavage kobs at 160 uM GlcN6P; higher = faster cleavage; RNA array
How it was run: as §1

Variant | kcat (glucosamine-6-phosphate [1]) | KM (glucosamine-6-phosphate [2]) | self-cleavage kobs at 640 uM GlcN6P (glucosamine-6-phosphate [3]) | self-cleavage kobs at 2500 uM GlcN6P (glucosamine-6-phosphate [4]) | self-cleavage kobs at 10000 uM GlcN6P (glucosamine-6-phosphate [5]) | self-cleavage kobs at 40 uM GlcN6P (glucosamine-6-phosphate [6]) | self-cleavage kobs at 160 uM GlcN6P (glucosamine-6-phosphate [7])
AUAAAAGCGCCAGAACUACAGAAAUGUAGUUGACGAGGAGGAGGUCUAUCGAAUUCUCGGCGGAUGCCUCCAAA [U46C U56C] | 0.000648 ± 3.9e-05 s⁻¹ | 866 ± 190 µM | 0.000246 ± 7.8e-05 s⁻¹ | 0.000514 ± 0.00014 s⁻¹ | 0.000596 ± 7.5e-05 s⁻¹ | – | –
AUAAAAGCGCCAGAACUACAGAAAUGUAGUUGACGAGGAGGAGGUGUAUCGAAUUUUCGGCGGAUGACUCCAAA [U46G C67A] | 0.00184 ± 0.00032 s⁻¹ | 818 ± 220 µM | 0.000783 ± 0.0001 s⁻¹ | 0.00146 ± 0.00022 s⁻¹ | 0.00173 ± 0.00021 s⁻¹ | 0.000105 ± 1.1e-05 s⁻¹ | 0.000224 ± 3.9e-05 s⁻¹
AUAAAAGCGCCAGAACUACAGAAAUGUAGUUGACGAGGAGGAGGUCUAUCGAAUUUUCGGCGGAUGCCACCAAA [U46C U69A] | 0.000242 ± 4.8e-05 s⁻¹ | 686 ± 310 µM | 9.77e-05 ± 2.8e-05 s⁻¹ | 0.000199 ± 6.1e-05 s⁻¹ | 0.000243 ± 6.5e-05 s⁻¹ | – | 5.58e-05 ± 2.2e-05 s⁻¹
AUAAAAGCGCCAGAACUACAGAAAUGUAGUUGACGAGGAGGAGGUGUAUUGAAUUUUCGGCGGAUGCCACCAAA [U46G C50U U69A] | 3.77e-05 ± 1.1e-05 s⁻¹ | – | – | – | 4.11e-05 ± 1.3e-05 s⁻¹ | – | –
AUAAAAGCGCCAGAACUACAGAAAUGUAGUUGACGAGGAGGAGGUGUAUCGGAUUUUCGGCGGAUGCCUCCAAA [U46G A52G] | 0.00059 ± 3.1e-05 s⁻¹ | 6370 ± 650 µM | 5.26e-05 ± 1.6e-05 s⁻¹ | 0.000185 ± 9.1e-05 s⁻¹ | 0.00036 ± 4.6e-05 s⁻¹ | – | –
AUAAAAGCGCCAGAACUACAGAAAUGUAGUUGACGAGGAGGAGGUGUAUCGAAUUUUCGGCGGGUGCCUCCAAA [U46G A64G] | 0.0154 ± 0.0048 s⁻¹ | 4300 ± 1900 µM | 0.00216 ± 0.00079 s⁻¹ | 0.00387 ± 0.001 s⁻¹ | 0.0119 ± 0.0016 s⁻¹ | 0.000157 ± 2.3e-05 s⁻¹ | –
AUAAAAGCGCCAGAACUACAGAAAUGUAGUUGACGAGGAGGAGGUGUAUCGACUUUUCGGCGGAUGCCUCCAAA [U46G A53C] | 0.00122 ± 6.4e-05 s⁻¹ | 2790 ± 250 µM | 0.000231 ± 4.3e-05 s⁻¹ | 0.000609 ± 9.9e-05 s⁻¹ | 0.000938 ± 0.00012 s⁻¹ | – | 5.96e-05 ± 1.8e-05 s⁻¹
